From EP4219720A2 (Caribou Biosciences, Inc., dated 2023) come the findings set out here.

Assay [1] addresses T1, Cas7, Cas6 and Cas5 of E. coli Type I-E Cascade with L3 crRNA (Escherichia coli K-12 MG1655, UniProt Q46899 2-363; Q46897 2-199; Q46898 1-224).
T1 construct: They also hold the L3 crRNA; This grouping is mine
T1 sequence 1: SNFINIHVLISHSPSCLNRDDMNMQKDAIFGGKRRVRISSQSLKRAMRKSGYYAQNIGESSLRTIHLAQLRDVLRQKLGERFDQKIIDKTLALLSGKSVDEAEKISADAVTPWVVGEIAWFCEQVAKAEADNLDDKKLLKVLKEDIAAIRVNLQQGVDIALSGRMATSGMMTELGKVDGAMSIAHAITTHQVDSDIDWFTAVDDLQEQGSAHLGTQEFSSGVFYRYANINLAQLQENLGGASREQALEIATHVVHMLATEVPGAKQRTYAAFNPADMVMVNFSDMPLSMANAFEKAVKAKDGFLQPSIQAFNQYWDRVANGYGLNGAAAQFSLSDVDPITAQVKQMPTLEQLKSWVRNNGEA
T1 sequence 2: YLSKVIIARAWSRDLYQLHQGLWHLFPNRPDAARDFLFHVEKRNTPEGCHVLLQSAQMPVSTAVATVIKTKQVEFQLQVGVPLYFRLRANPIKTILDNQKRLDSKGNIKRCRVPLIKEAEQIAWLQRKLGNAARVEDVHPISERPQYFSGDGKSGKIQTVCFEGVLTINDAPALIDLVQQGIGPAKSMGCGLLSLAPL
T1 sequence 3: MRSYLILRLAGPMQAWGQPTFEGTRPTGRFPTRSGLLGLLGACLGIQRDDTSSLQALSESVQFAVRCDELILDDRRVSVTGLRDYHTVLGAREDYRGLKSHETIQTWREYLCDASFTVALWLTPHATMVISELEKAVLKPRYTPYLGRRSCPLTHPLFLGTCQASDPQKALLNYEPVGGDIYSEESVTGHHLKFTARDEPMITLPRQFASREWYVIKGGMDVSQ
In words: co-expression in E. coli, Strep-Tactin capture by Strep-tag II on Cse2, SEC, Coomassie SDS-PAGE.

The target in assay [2] is T2, CasBCDE complex (Strep-tag II-HRV3C-Cse2, Cas7, Cas5, Cas6) with J3/L3 crRNAs (Escherichia coli K-12 MG1655, UniProt Q46899 2-363; Q46898 1-224; Q46897 2-199).
T2 construct: It also holds a crRNA (J3 or L3 guide), so it is a ribonucleoprotein; Removal of the Strep tag is not described; also called Cas8-less Cascade complex; Cas8-minus Cascade complex
T2 sequence 1: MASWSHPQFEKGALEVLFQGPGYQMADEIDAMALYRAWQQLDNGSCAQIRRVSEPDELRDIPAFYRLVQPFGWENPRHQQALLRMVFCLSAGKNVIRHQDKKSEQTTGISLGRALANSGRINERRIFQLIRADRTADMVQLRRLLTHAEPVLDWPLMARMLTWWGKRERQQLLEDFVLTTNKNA
T2 sequence 2: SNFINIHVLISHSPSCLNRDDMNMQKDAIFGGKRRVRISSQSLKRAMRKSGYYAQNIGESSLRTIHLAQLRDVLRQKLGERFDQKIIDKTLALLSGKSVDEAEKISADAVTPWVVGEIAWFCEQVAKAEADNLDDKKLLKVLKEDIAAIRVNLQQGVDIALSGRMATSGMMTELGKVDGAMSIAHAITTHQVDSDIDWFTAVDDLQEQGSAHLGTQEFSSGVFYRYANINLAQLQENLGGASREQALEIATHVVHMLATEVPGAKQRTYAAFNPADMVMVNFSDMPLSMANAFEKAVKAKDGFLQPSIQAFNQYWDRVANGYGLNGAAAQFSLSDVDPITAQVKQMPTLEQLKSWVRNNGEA
T2 sequence 3: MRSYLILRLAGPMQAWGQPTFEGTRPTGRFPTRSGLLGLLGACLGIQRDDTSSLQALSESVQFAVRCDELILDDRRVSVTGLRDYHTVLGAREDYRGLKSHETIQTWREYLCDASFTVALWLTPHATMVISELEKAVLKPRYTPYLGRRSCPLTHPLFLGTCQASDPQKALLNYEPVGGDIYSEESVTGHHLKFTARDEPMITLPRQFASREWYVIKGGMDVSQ
T2 sequence 4: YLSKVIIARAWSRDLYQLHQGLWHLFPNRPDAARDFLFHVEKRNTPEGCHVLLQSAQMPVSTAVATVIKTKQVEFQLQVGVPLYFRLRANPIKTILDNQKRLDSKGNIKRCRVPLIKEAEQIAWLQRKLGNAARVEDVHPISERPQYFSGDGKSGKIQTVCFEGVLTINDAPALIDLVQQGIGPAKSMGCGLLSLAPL
Briefly: reconstitution from separately purified parts; tested by plasmid DNA cleavage.

The target in assay [3] is T3, Cas8, Cas7, Cas6 and Cas5 of E. coli Type I-E Cascade with J3 crRNA (Escherichia coli K-12 MG1655, UniProt Q46901 1-502; Q46899 2-363; Q46897 2-199; Q46898 1-224).
T3 construct: They also hold the J3 crRNA; also called remaining Cascade subunits
T3 sequence 1: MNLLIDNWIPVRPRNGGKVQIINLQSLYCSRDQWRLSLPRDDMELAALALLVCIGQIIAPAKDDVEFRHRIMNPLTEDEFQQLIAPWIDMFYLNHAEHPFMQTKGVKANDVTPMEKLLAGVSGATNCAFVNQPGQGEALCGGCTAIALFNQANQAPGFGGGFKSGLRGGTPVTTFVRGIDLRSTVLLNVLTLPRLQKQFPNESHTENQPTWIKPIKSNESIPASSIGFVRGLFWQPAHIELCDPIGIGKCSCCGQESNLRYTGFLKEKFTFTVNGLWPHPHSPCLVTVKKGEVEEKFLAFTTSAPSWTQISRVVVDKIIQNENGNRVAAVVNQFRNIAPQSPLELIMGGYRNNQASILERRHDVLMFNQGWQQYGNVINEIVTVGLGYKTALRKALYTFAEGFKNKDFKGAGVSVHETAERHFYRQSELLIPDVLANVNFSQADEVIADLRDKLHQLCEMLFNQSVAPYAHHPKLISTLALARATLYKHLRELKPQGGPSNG
T3 sequence 2: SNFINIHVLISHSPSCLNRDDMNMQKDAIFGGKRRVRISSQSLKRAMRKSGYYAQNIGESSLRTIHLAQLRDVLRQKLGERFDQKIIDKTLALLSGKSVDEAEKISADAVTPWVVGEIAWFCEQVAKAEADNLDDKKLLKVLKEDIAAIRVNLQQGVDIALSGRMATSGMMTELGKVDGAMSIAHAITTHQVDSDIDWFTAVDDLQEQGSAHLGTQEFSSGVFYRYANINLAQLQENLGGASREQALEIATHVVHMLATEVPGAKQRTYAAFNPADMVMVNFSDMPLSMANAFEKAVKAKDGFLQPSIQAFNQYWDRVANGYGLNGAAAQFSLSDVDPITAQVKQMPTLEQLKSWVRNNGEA
T3 sequence 3: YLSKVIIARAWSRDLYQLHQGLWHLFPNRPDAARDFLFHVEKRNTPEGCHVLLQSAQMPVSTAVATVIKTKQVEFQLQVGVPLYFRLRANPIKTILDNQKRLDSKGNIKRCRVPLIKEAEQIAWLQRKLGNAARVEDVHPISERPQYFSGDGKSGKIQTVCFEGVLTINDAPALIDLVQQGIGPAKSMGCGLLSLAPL
T3 sequence 4: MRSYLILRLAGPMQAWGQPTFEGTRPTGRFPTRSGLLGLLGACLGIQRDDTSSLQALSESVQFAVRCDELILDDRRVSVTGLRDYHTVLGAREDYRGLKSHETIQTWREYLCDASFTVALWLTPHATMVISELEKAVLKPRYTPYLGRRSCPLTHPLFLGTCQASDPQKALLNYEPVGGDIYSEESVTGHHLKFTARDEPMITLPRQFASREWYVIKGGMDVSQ
In words: co-expression in E. coli, Ni-NTA capture by His6 on Cse2, SEC, Coomassie SDS-PAGE.

B1: Strep-tag II-HRV3C-Cse2 (other)
chain: MASWSHPQFEKGALEVLFQGPGYQMADEIDAMALYRAWQQLDNGSCAQIRRVSEPDELRDIPAFYRLVQPFGWENPRHQQALLRMVFCLSAGKNVIRHQDKKSEQTTGISLGRALANSGRINERRIFQLIRADRTADMVQLRRLLTHAEPVLDWPLMARMLTWWGKRERQQLLEDFVLTTNKNA
notes: The tagged subunit by which the CasBCDE complex was captured on Strep-Tactin resin
Consider B1, for which, in assay [1], the binding result is listed as “binds”.

B2: NLS-GGS-FokISharkey-30aa-linker-Cas8 (after TEV cleavage) (other)
chain: SNMPKKKRKVQLVKSELEEKKSELRHKLKYVPHEYIELIEIARNPTQDRILEMKVMEFFMKVYGYRGEHLGGSRKPDGAIYTVGSPIDYGVIVDTKAYSGGYNLPIGQADEMQRYVEENQTRNKHINPNEWWKVYPSSVTEFKFLFVSGHFKGNYKAQLTRLNHITNCNGAVLSVEELLIGGEMIKAGTLTLEEVRRKFNNGEINFSGSETPGTSESATPESGGSGSSGGSGSSGGMNLLIDNWIPVRPRNGGKVQIINLQSLYCSRDQWRLSLPRDDMELAALALLVCIGQIIAPAKDDVEFRHRIMNPLTEDEFQQLIAPWIDMFYLNHAEHPFMQTKGVKANDVTPMEKLLAGVSGATNCAFVNQPGQGEALCGGCTAIALFNQANQAPGFGGGFKSGLRGGTPVTTFVRGIDLRSTVLLNVLTLPRLQKQFPNESHTENQPTWIKPIKSNESIPASSIGFVRGLFWQPAHIELCDPIGIGKCSCCGQESNLRYTGFLKEKFTFTVNGLWPHPHSPCLVTVKKGEVEEKFLAFTTSAPSWTQISRVVVDKIIQNENGNRVAAVVNQFRNIAPQSPLELIMGGYRNNQASILERRHDVLMFNQGWQQYGNVINEIVTVGLGYKTALRKALYTFAEGFKNKDFKGAGVSVHETAERHFYRQSELLIPDVLANVNFSQADEVIADLRDKLHQLCEMLFNQSVAPYAHHPKLISTLALARATLYKHLRELKPQGGPSNG
notes: The tag was removed with TEV protease; also called Fokl-Cas8 fusion protein
With B2, the binding result in assay [2] was “binds”.

B3: His6-HRV3C-Cse2 (other)
chain: MAEHHHHHHGALEVLFQGPGYQMADEIDAMALYRAWQQLDNGSCAQIRRVSEPDELRDIPAFYRLVQPFGWENPRHQQALLRMVFCLSAGKNVIRHQDKKSEQTTGISLGRALANSGRINERRIFQLIRADRTADMVQLRRLLTHAEPVLDWPLMARMLTWWGKRERQQLLEDFVLTTNKNA
notes: The tagged subunit by which the Cascade complex was captured on Ni-NTA resin
In the case of B3, the binding result in assay [3] is “binds”.
